From US11473073B2, “Aminopeptidases for protein hydrolyzates” (DUPONT NUTRITION BIOSCIENCES APS, priority 2015, dated 2022)

Legend:
Format in all cases: biochemical
[1] = system: whey protein isolate (WPI); assay: Degree of hydrolysis of pre-hydrolysed whey protein isolate; settings: 50° C., 20 hr
Procedure: (§1) The degree of hydrolyses (DH) describes the relative amount of cleaved peptides bounds compared to an acid hydrolyses of the same amount of protein conducted e.g. in 6 M HCL at ˜120° C. for ˜24 h. The higher the DH can therefore be applied to assess the efficiency of amino acid liberation of a general PepN such as a PepN 1 or a PepN 2 type. The cell free culture broth was concentrated (10 kDa cut-off, Sartorius, Göttingen, Germany) and desalted applying a disposal desalting column (PD10, GE, Munchen, Germany) as described by the manufacturer. As substrates were pre-hydrolysed 10% (w/w) Na-caseinate (DMK, Germany), whey protein isolate (WPI; Arla, Viby, Denmark), soy protein isolate (SPI; SUPRO® 760, DuPont, Brabrand, Denmark) and gluten suspensions were applied. The pre-hydrolysis was conducted with 1% (w/wprotein) of FOODPRO® Alkaline Protease, 1% (w/wprotein) FOODPRO® PNL for the Na-Caseinate, the WPI as well as the SPI suspension. All pre-hydrolyses were conducted at 55° C. for 18 h followed by an inactivation step at 95° C. for 20 min. Each applied PepN 2 has been inactivated at 95 C for 15 min as a control of the elimination of any carryover of amino acids from the culture broth to the final hydrolyses as well as for the sufficient inactivation of the applied endopeptidases. The hydrolyses were conducted in a 96-well micro titer plate format and consisted of 150 μL of the pre-hydrolyzed protein suspension combined with 50 μL of a PepN 2 stock solution as indicated in Table 1 below. The hydrolyses were conducted at 50° C. for 20 hr, subsequently, the hydrolysis were stopped by the addition of 20 μL 2 M TCA (Trichloroacetic acid, Sigma-Aldrich, Schnelldorf, Germany). The efficiency of the amino acid liberation of the PepN 2 types from Neosartorya fischeri and Aspergillus clavatus can be seen in Table 1 (B) and (A). […] For the gluten hydrolyses, an increased DH was noticed in the protein range from 0.02-0.3 mg/mL PepN 2.

[2] = system: soy protein isolate (SPI); assay: Degree of hydrolysis of pre-hydrolysed soy protein isolate; settings: 50° C., 20 hr
Procedure: as §1

[3] = system: peptide WHWLQLKPGQPMY (SEQ ID NO:26); assay: Hydrolysis of proline containing peptide, LC-MS; settings: peptide 1 mg/mL, aminopeptidase 1 ug/mL, CPB-Buffer, 55° C.; FIG. 5-7
Procedure: The peptide […] (SEQ ID NO:26) was hydrolysed with TRI03 and TRI035. The peptide (1 mg/mL) was incubated with 1 ug/mL of the aminopeptidase in 20 mM CPB-Buffer (20 mM Citric acid, 20 mM Phosphate. 20 mM Boric acid) at 55° C. Aliquots (50 μL) were stopped with 50 rel 5% TFA at the indicated time points and subjected to LC-MS analysis.
Capillary LC-MS/MS analyses were performed using an Agilent 1100 LC system (Agilent Technologies) interfaced to a LTQ Orbitrap Classic hybrid mass spectrometer (Thermo Scientific, Bremen, Germany). Samples were loaded onto a 15 cm Phenomenix Jupiter 4μ Proteo 90A, C4 analytical column. Separation was performed at a flow rate of 16 μL/min using a 10 min gradient of 0-40% Solvent B H2O/CH3CN/HCOOH (50/950/0.65 v/v/v) into the IONMAX® ion source (Thermo Scientific, San Jose). The LTQ Orbitrap Classic instrument was operated in a data-dependent MS/MS mode. The peptide masses were measured by the Orbitrap (MS scans were obtained with a resolution of 60 000 at m/z 400), and up to 2 of the most intense peptide m/z were selected and subjected to fragmentation using CID in the linear ion trap (LTQ). Dynamic exclusion was enabled with a list size of 500 masses, duration of 40 s, and an exclusion mass width of ±10 ppm relative to masses on the list.
The RAW files were accessed with the program Skyline 2.6.0.7176 (MacLean, B., et al., “Skyline: an open source document editor for creating and analyzing targeted proteomics experiments”, Bioinformatics, 2010, 26(7): p. 966-8) which uses the MS1 intensities to build chromatograms (Schilling, B., et al., “Platform-independent and label-free quantitation of proteomic data using MS1 extracted ion chromatograms in skyline: application to protein acetylation and phosphorylation”, Mol Cell Proteomics, 2012. 11(5): p. 202-14). The precursor isotopic import filter was set to a count of three, (M, M+1, and M+2) at a resolution of 60,000 and the most intense charge state was used. Peptide sequences of the substrate as well as cleavage products were typed into Skyline and intensities were calculated in each sample. […]

[4] = system: gluten; assay: Degree of hydrolysis of pre-hydrolysed gluten; settings: 50° C., 20 hr
Procedure: as §1

[5] = Product inhibition of H-Ala-pNA hydrolysis by amino acid inhibitor mix; settings: pH 9.0, 30° C.
Procedure: Sigma cat # D2650). […] […] and proline were dissolved in DMSO. All other amino acids were dissolved in buffer. […] The reaction was started by adding 20 μL substrate. Only one substrate concentration was used per plate.

[6] = system: Na-caseinate; assay: Degree of hydrolysis of pre-hydrolysed Na-caseinate; settings: Casein, 50° C., 20 hr
Procedure: as §1

[7] = inactivated enzyme at the highest conc.

B1: TRI031: fungal aminopeptidase type-2 (pepN_2), NCBI XP_001258675 from Neosartorya fischeri NRRL 181, expressed in Trichoderma reesei (protein)
chain: MQTFGAFLVSFLAASGLAAANGPGWDWKPPVHPKVLPQMIHLWDLMHGAQKLEDFAYAYPERNRVFGGPAHEDTVNYLYRELKKTGYYDVYKQPQVHQWTRADQALTVDGKSYVATTMTYSPSVNVTAPLAVVNNLGCVESDYPADLKGKIALVSRGECPFATKSVLSAKAGAAAALVYNNIEGSMAGTLGGPTSELGPYAPIAGISLADGQALIQMIQAGTVTANLWIDSKVENRTTYNVIAQTKGGDPNNVVALGGHTDSVEAGPGINDDGSGIISNLVVAKALTRFSVKNAVRFCFWTAEEFGLLGSSYYVNSLNATEKAKIRLYLNFDMIASPNYALMIYDGDGSAFNLTGPAGSAQIERLFEDYYKSIRKPFVPTEFNGRSDYEAFILNGIPAGGIFTGAEAIKTEEQAKLFGGQAGVALDANYHAKGDNMTNLNREAFLINSKATAFAVATYANSLDSIPSRNMSTVVKRSQLEQAKKSTPHTHTGGTGCYKDRVEQ
modifications: Synthetic peptide with leader sequence
notes: fungal aminopeptidase type-2 (pepN_2), NCBI XP_001258675 from Neosartorya fischeri NRRL 181, expressed in Trichoderma reesei
With B1 as the molecule, how does the Degree of hydrolysis ([1]; PepN 2 stock 0.02 mg/mL) read?
Its Degree of hydrolysis is 17%.

What about the Degree of hydrolysis ([1]; PepN 2 stock 0.03 mg/mL) of the same molecule?
The Degree of hydrolysis was 19%.

And the Degree of hydrolysis ([1]; PepN 2 stock 0.04 mg/mL)?
The Degree of hydrolysis was 19%.

What about the Degree of hydrolysis ([1]; PepN 2 stock 0.05 mg/mL) of the same molecule?
The Degree of hydrolysis was 21%.

And the Degree of hydrolysis ([1]; PepN 2 stock 0.1 mg/mL)?
The Degree of hydrolysis was 23%.

And the Degree of hydrolysis ([1]; PepN 2 stock 0.15 mg/mL)?
The Degree of hydrolysis was 28%.

What about the Degree of hydrolysis ([1]; PepN 2 stock 0.2 mg/mL) of the same molecule?
Its Degree of hydrolysis is 24%.

What about the Degree of hydrolysis ([1]; PepN 2 stock 0.25 mg/mL) of the same molecule?
Its Degree of hydrolysis is 26%.

And the Degree of hydrolysis ([1]; PepN 2 stock 0.3 mg/mL)?
Its Degree of hydrolysis is 27%.

What about the Degree of hydrolysis ([1]; PepN 2 stock 0.35 mg/mL) of the same molecule?
The Degree of hydrolysis was 29%.

What about the Degree of hydrolysis [1, 7] of the same molecule?
Its Degree of hydrolysis is 8%.

What about the Degree of hydrolysis ([2]; PepN 2 stock 0.02 mg/mL) of the same molecule?
The Degree of hydrolysis was 11%.

What about the Degree of hydrolysis ([2]; PepN 2 stock 0.03 mg/mL) of the same molecule?
Its Degree of hydrolysis is 13%.

And the Degree of hydrolysis ([2]; PepN 2 stock 0.04 mg/mL)?
The Degree of hydrolysis was 14%.

What about the Degree of hydrolysis ([2]; PepN 2 stock 0.05 mg/mL) of the same molecule?
Its Degree of hydrolysis is 15%.

What about the Degree of hydrolysis ([2]; PepN 2 stock 0.1 mg/mL) of the same molecule?
Its Degree of hydrolysis is 17%.

What about the Degree of hydrolysis ([2]; PepN 2 stock 0.15 mg/mL) of the same molecule?
The Degree of hydrolysis was 18%.

What about the Degree of hydrolysis ([2]; PepN 2 stock 0.2 mg/mL) of the same molecule?
The Degree of hydrolysis was 19%.

What about the Degree of hydrolysis ([2]; PepN 2 stock 0.25 mg/mL) of the same molecule?
The Degree of hydrolysis was 19%.

And the Degree of hydrolysis ([2]; PepN 2 stock 0.3 mg/mL)?
Its Degree of hydrolysis is 19%.

What about the Degree of hydrolysis ([2]; PepN 2 stock 0.35 mg/mL) of the same molecule?
Its Degree of hydrolysis is 22%.

And the Degree of hydrolysis [2, 7]?
The Degree of hydrolysis was 6%.

What about the “hydrolysis of WHWLQLKPGQPMY to KPGQPMY and further down to QPMY” value [3] of the same molecule?
Its value is “can hydrolyze”.

What about the Degree of hydrolysis ([4]; PepN 2 stock 0.02 mg/mL) of the same molecule?
The Degree of hydrolysis was 10%.

What about the Degree of hydrolysis ([4]; PepN 2 stock 0.03 mg/mL) of the same molecule?
The Degree of hydrolysis was 13%.

And the Degree of hydrolysis ([4]; PepN 2 stock 0.04 mg/mL)?
The Degree of hydrolysis was 15%.

What about the Degree of hydrolysis ([4]; PepN 2 stock 0.05 mg/mL) of the same molecule?
Its Degree of hydrolysis is 14%.

And the Degree of hydrolysis ([4]; PepN 2 stock 0.1 mg/mL)?
The Degree of hydrolysis was 17%.

And the Degree of hydrolysis ([4]; PepN 2 stock 0.15 mg/mL)?
Its Degree of hydrolysis is 18%.

And the Degree of hydrolysis ([4]; PepN 2 stock 0.2 mg/mL)?
The Degree of hydrolysis was 19%.

And the Degree of hydrolysis ([4]; PepN 2 stock 0.25 mg/mL)?
The Degree of hydrolysis was 19%.

And the Degree of hydrolysis ([4]; PepN 2 stock 0.3 mg/mL)?
Its Degree of hydrolysis is 21%.

What about the Degree of hydrolysis ([4]; PepN 2 stock 0.35 mg/mL) of the same molecule?
The Degree of hydrolysis was 20%.

What about the Degree of hydrolysis [4, 7] of the same molecule?
Its Degree of hydrolysis is 4%.

And the “product inhibition compared to TRI063 from A. oryzae” value [5]?
The value was “less inhibited by product”.

And the Degree of hydrolysis ([6]; PepN 2 stock 0.02 mg/mL)?
Its Degree of hydrolysis is 14%.

What about the Degree of hydrolysis ([6]; PepN 2 stock 0.03 mg/mL) of the same molecule?
The Degree of hydrolysis was 15%.

And the Degree of hydrolysis ([6]; PepN 2 stock 0.04 mg/mL)?
The Degree of hydrolysis was 16%.

And the Degree of hydrolysis ([6]; PepN 2 stock 0.05 mg/mL)?
The Degree of hydrolysis was 20%.

What about the Degree of hydrolysis ([6]; PepN 2 stock 0.1 mg/mL) of the same molecule?
The Degree of hydrolysis was 19%.

And the Degree of hydrolysis ([6]; PepN 2 stock 0.15 mg/mL)?
The Degree of hydrolysis was 21%.

And the Degree of hydrolysis ([6]; PepN 2 stock 0.2 mg/mL)?
Its Degree of hydrolysis is 23%.

And the Degree of hydrolysis ([6]; PepN 2 stock 0.25 mg/mL)?
The Degree of hydrolysis was 22%.

What about the Degree of hydrolysis ([6]; PepN 2 stock 0.3 mg/mL) of the same molecule?
Its Degree of hydrolysis is 24%.

What about the Degree of hydrolysis ([6]; PepN 2 stock 0.35 mg/mL) of the same molecule?
Its Degree of hydrolysis is 24%.

And the Degree of hydrolysis [6, 7]?
Its Degree of hydrolysis is 8%.
